Source: article PMC12959268, “Mapping the nonribosomal specificity code through promiscuity-guided A-domain engineering” (Chemical Science, 2026)

Assays:
Test in all cases: MesG/hydroxylamine adenylation assay (pyrophosphate release)
Type in all cases: biochemical, Bacillus subtilis
Settings in all cases: 5 mM ATP, 5 mM MgCl2, 150 mM hydroxylamine, pH 7.6, 30 °C
[1] = substrate: CC(C)C[C@H](N)C(=O)O
[2] = substrate: N[C@@H](Cc1ccccc1)C(=O)O
[3] = substrate: CSCC[C@H](N)C(=O)O

Protein	Km [1]	Km [2]	Km [3]
SrfAC (Bacillus subtilis subsp. subtilis str. 168) (protein, full module C-A-T-TE, C-terminal His6 tag, holo form, from pTrc99a-srfAC in E. coli HM0079) MSQFSKDQVQDMYYLSPMQEGMLFHAILNPGQSFYLEQITMKVKGSLNIKCLEESMNVIMDRYDVFRTVFIHEKVKRPVQVVLKKRQFHIEEIDLTHLTGSEQTAKINEYKEQDKIRGFDLTRDIPMRAAIFKKAEESFEWVWSYHHIILDGWCFGIVVQDLFKVYNALREQKPYSLPPVKPYKDYIKWLEKQDKQASLRYWREYLEGFEGQTTFAEQRKKQKDGYEPKELLFSLSEAETKAFTELAKSQHTTLSTALQAVWSVLISRYQQSGDLAFGTVVSGRPAEIKGVEHMVGLFINVVPRRVKLSEGITFNGLLKRLQEQSLQSEPHQYVPLYDIQSQADQPKLIDHIIVFENYPLQDAKNEESSENGFDMVDVHVFEKSNYDLNLMASPGDEMLIKLAYNENVFDEAFILRLKSQLLTAIQQLIQNPDQPVSTINLVDDREREFLLTGLNPPAQAHETKPLTYWFKEAVNANPDAPALTYSGQTLSYRELDEEANRIARRLQKHGAGKGSVVALYTKRSLELVIGILGVLKAGAAYLPVDPKLPEDRISYMLADSAAACLLTHQEMKEQAAELPYTGTTLFIDDQTRFEEQASDPATAIDPNDPAYIMYTSGTTGKPKGNITTHANIQGLVKHVDYMAFSDQDTFLSVSNYAFDAFTFDFYASMLNAARLIIADEHTLLDTERLTDLILQENVNVMFATTALFNLLTDAGEDWMKGLRCILFGGERASVPHVRKALRIMGPGKLINCYGPTEGTVFATAHVVHDLPDSISSLPIGKPISNASVYILNEQSQLQPFGAVGELCISGMGVSKGYVNRADLTKEKFIENPFKPGETLYRTGDLARWLPDGTIEYAGRIDDQVKIRGHRIELEEIEKQLQEYPGVKDAVVVADRHESGDASINAYLVNRTQLSAEDVKAHLKKQLPAYMVPQTFTFLDELPLTTNGKVNKRLLPKPDQDQLAEEWIGPRNEMEETIAQIWSEVLGRKQIGIHDDFFALGGHSLKAMTAASRIKKELGIDLPVKLLFEAPTIAGISAYLKNGGSDGLQDVTIMNQDQEQIIFAFPPVLGYGLMYQNLSSRLPSYKLCAFDFIEEEDRLDRYADLIQKLQPEGPLTLFGYSAGCSLAFEAAKKLEEQGRIVQRIIMVDSYKKQGVSDLDGRTVESDVEALMNVNRDNEALNSEAVKHGLKQKTHAFYSYYVNLISTGQVKADIDLLTSGADFDMPEWLASWEEATTGVYRVKRGFGTHAEMLQGETLDRNAEILLEFLNTQTVTVS	13 ± 1 µM	–	–
SrfAC (Bacillus subtilis subsp. subtilis str. 168; A660V/C752A/F702S) (protein, full module C-A-T-TE, C-terminal His6 tag, holo form, from pTrc99a-srfAC in E. coli HM0079) MSQFSKDQVQDMYYLSPMQEGMLFHAILNPGQSFYLEQITMKVKGSLNIKCLEESMNVIMDRYDVFRTVFIHEKVKRPVQVVLKKRQFHIEEIDLTHLTGSEQTAKINEYKEQDKIRGFDLTRDIPMRAAIFKKAEESFEWVWSYHHIILDGWCFGIVVQDLFKVYNALREQKPYSLPPVKPYKDYIKWLEKQDKQASLRYWREYLEGFEGQTTFAEQRKKQKDGYEPKELLFSLSEAETKAFTELAKSQHTTLSTALQAVWSVLISRYQQSGDLAFGTVVSGRPAEIKGVEHMVGLFINVVPRRVKLSEGITFNGLLKRLQEQSLQSEPHQYVPLYDIQSQADQPKLIDHIIVFENYPLQDAKNEESSENGFDMVDVHVFEKSNYDLNLMASPGDEMLIKLAYNENVFDEAFILRLKSQLLTAIQQLIQNPDQPVSTINLVDDREREFLLTGLNPPAQAHETKPLTYWFKEAVNANPDAPALTYSGQTLSYRELDEEANRIARRLQKHGAGKGSVVALYTKRSLELVIGILGVLKAGAAYLPVDPKLPEDRISYMLADSAAACLLTHQEMKEQAAELPYTGTTLFIDDQTRFEEQASDPATAIDPNDPAYIMYTSGTTGKPKGNITTHANIQGLVKHVDYMAFSDQDTFLSVSNYAFDVFTFDFYASMLNAARLIIADEHTLLDTERLTDLILQENVNVMSATTALFNLLTDAGEDWMKGLRCILFGGERASVPHVRKALRIMGPGKLINAYGPTEGTVFATAHVVHDLPDSISSLPIGKPISNASVYILNEQSQLQPFGAVGELCISGMGVSKGYVNRADLTKEKFIENPFKPGETLYRTGDLARWLPDGTIEYAGRIDDQVKIRGHRIELEEIEKQLQEYPGVKDAVVVADRHESGDASINAYLVNRTQLSAEDVKAHLKKQLPAYMVPQTFTFLDELPLTTNGKVNKRLLPKPDQDQLAEEWIGPRNEMEETIAQIWSEVLGRKQIGIHDDFFALGGHSLKAMTAASRIKKELGIDLPVKLLFEAPTIAGISAYLKNGGSDGLQDVTIMNQDQEQIIFAFPPVLGYGLMYQNLSSRLPSYKLCAFDFIEEEDRLDRYADLIQKLQPEGPLTLFGYSAGCSLAFEAAKKLEEQGRIVQRIIMVDSYKKQGVSDLDGRTVESDVEALMNVNRDNEALNSEAVKHGLKQKTHAFYSYYVNLISTGQVKADIDLLTSGADFDMPEWLASWEEATTGVYRVKRGFGTHAEMLQGETLDRNAEILLEFLNTQTVTVS	510 ± 50 µM	1300 ± 100 µM	4600 ± 900 µM
